Two molecules from PMC6258952, “Visualization of Calcium Ion Loss from Rotavirus during Cell Entry” (Journal of Virology, 2018) can be followed below.

Assay [1] concerns the target VP5 CT fragment from sequential chymotrypsin-trypsin digestion of VP4 Rhod5F (rhesus rotavirus (RRV)). Kind of assay: SDS-PAGE of unboiled and boiled samples; VP4 469C-Rhod5F digested with chymotrypsin (37°C, 30 min) then trypsin (room temperature, 1 h); reducing sample buffer (200 mM DTT), boiled at 95°C for 3 min or kept at room temperature for 3 min; 5-to-20% gradient gel, UV light and Coomassie blue.

Assay [2] deals with T1, VP4 mutated at position 469 from serine to cysteine (rhesus rotavirus (RRV), UniProt P12473 1-776, S469C).
T1 construct: VP4, outer layer spike protein of rhesus rotavirus (RRV), with S469C; Unlabeled during recoating; It was labeled on the purified rcTLP afterwards with DBCO-maleimide and Rhod5F azide; also called VP4 469C; S469C; source: Sf9 cells infected with a baculovirus vector, purified (ammonium sulfate, Phenyl HP, HiTrap Q, S200)
Kind of assay: co-sedimentation; recoating of labeled DLP: 100 mM sodium acetate pH 5.2, VP4 at 0.9 mg/ml (~33-fold excess) 1 h at room temperature, then VP7 in 2.3-fold excess with 1 mM CaCl2 for 1 h; recoated particles separated from excess components by cesium chloride gradient centrifugation; dyes seen on single particles by confocal imaging. The settings on record: both partners purified.

Assay [3] concerns the target T2, wild-type recombinant VP4 labeled with pHrodo Red succinimidyl ester (rhesus rotavirus (RRV), UniProt P12473 1-776, pHrodo Red succinimidyl ester, 1 dye molecule per 2 VP4 monomers (residues not stated)).
T2 construct: VP4, outer layer spike protein of rhesus rotavirus (RRV), wild type; also called VP4-pHrodo Red; wt VP4; source: Sf9 cells infected with a baculovirus vector, purified (ammonium sulfate, Phenyl HP, HiTrap Q, S200)
The description is as above. The settings on record: both partners purified.

Assay [4] concerns the target T3, wild-type recombinant VP4 labeled with Atto 565 NHS ester (rhesus rotavirus (RRV), UniProt P12473 1-776, Atto 565 NHS ester, about 1 dye molecule per VP4 monomer (residues not stated)).
T3 construct: VP4, outer layer spike protein of rhesus rotavirus (RRV), wild type; also called VP4-565; rVP4; source: Sf9 cells infected with a baculovirus vector, purified (ammonium sulfate, Phenyl HP, HiTrap Q, S200)
The description is as above. The note with it: both partners purified.

The term stoichiometry N denotes the number of molecules, sites or subunits per partner or assembly. “VP5 CT fragment from sequential chymotrypsin-trypsin digestion of VP4 Rhod5F (domain or fragment)”: the stoichiometry N in assay [1] worked out at 3.

B1: Atto 488 NHS ester-labeled VP7 (natural protein)
chain: QNYGINLPITGSMDTAYANSTQEETFLTSTLCLYYPTEAATEINDNSWKDTLSQLFLTKGWPTGSVYFKEYTDIASFSVDPQLYCDYNVVLMKYDATLQLDMSELADLILNEWLCNPMDITLYYYQQTDEANKWISMGSSCTIKVCPLNTQTLGIGCLTTDTATFEEVATAEKLVITDVVDGVNHKLDVTTATCTIRNCKKLGPRENVAVIQVGGSDVLDITADPTTAPQTERMMRINWKKWWQVFYTVVDYVNQIIQAMSKRSRSLNSAAFYYRI
modifications: Atto 488 NHS ester (residues not stated)
notes: VP7, Ca2+-stabilized outer layer protein of rhesus rotavirus (RRV); also called VP7-488
As for B1, the binding result in assay [2], in assay [3] and in assay [4] was “binds” each time.
